Assay results as given in patent US20250170285A1, “RADIOLABELLED OLIGONUCLEOTIDES AND PROCESS FOR THEIR PREPARATION” (Hoffmann-La Roche Inc., priority 2018, published 2025).
Like-named read-outs stand apart in the source and are kept apart here.

Key:
[1] = in vivo
Description: (§1) Serial dilutions were made from stock solution (approx. 1 mg/mL in PCR grade water, the exact concentration of the stock solution will be quantified with the spectro-photometric device Nanodrop (Thermo Scientific) based on the extinction coefficient at 260 nm) to generate working solutions in water from approx. 100 ng/mL up to approx. 250000 ng/mL.
(§2) Calibration standards and quality control samples (freshly prepared in plasma, 50 μL) were treated for protein denaturation with 150 μL of 4 M guanidine thiocyanate after addition of the internal standard. After vigorously mixing (20 min at 1600 rpm), 200 μL of a water/hexafluoroisopropanol/diisopropylethylamine solution (100:4:0.2, v/v/v) were added, followed by mixing (15 min at 1500 rpm). Then a clean-up step was performed by means of solid-phase-extraction cartridges (Waters, OASIS HLB 5 mg, 30 μm) after elution and evaporation to dryness (30-45 min at +40° C.) the samples were reconstituted in 200 μL of mobile phase (water/methanol/hexafluoroisopropanol/diisopropylethylamine (95/5/1/0.2, v/v/v/v)). After vortex mixing (10 min at 1500 rpm), an aliquot (20 μL) was injected into a LC-MS/MS system (50 μL loop).
(§3) A Shimadzu 30ADXR pump was used, equipped with a Waters Acquity C18 column (50×2.1 mm) at 60° C. […]

[2] = Tissue exposure study: liver concentration of unlabeled LNAs by LC-MS/MS; conditions: analyzed by LC-MS/MS, FIG. 1
Description: as §1, §2, §3

[3] = Single dose PK experiment: liver concentration of tritium labeled LNAs by LSC; type: in vivo; conditions: single dose 1 mg/kg; liver 24, 72 and 336 h after dosing; radioactivity by LSC, FIG. 2
Description: A single dose PK experiment with Example 3.b ([^3H]-compound 2 based on conjugate 4) and Example 3.c ([^3H]-compound 3 based on conjugate 7) at 1 mg/kg was done. LNAs were analyzed in liver 24, 72 and 336 h after dosing. The study will confirm the feasibility of oligonucleotides with radioactive conjugation.
A Packard Tri-carb 3100TR was used for LSC analysis.
In FIG. 2 the liver concentration of the tritium labeled compounds of Example 3.b (dotted line) and Example 3.c (continuous line) have been analyzed by LSC.

## 5′-GN2-C6-ca G*A*G*t*t*a*c*t*t*g*c*c*a*A*C*T*-3′ (CAGAGTTACTTGCCAACT; 5'-GalNAc2-C6 conjugate, LNA and phosphorothioate, case key not given here, further chemistry not given here) [GalNAc LNA study compound A]
[1]
  liver concentration (liver uptake): high initial uptake in the liver plasma and a normal decrease over the time

## 5′-G*A*G*t*t*a*c*t*t*g*c*c*a*A*C*T*-3′ (GAGTTACTTGCCAACT; all phosphorothioate, sugars by position and methylation of C not given here; further chemistry not fully specified) [LNA study compound A]
[2]
  liver concentration (liver uptake): lower level of uptake

## 5′-GN2-C6-caG*A*G*t*t*a*c*t*t*g*c*c*a*A*C*T*-C6SH-[^3H]-NEM [Example 3.b]
[3]
  liver concentration (liver uptake): equivalent liver uptake as a therapeutic GalNAc LNA
